From patent publication US20220317133A1 (NORDIC BIOSCIENCE A S, published 2022) come the findings set out here.

Assay [1] concerns the target T1, CPTGPQNYSP, C-terminal neo-epitope sequence of the α1 chain PIIINP (free calibrator peptide).
T1 construct: also called PRO-C3
T1 peptide: CPTGPQNYSP
The assay can be described thus: hybridoma screening, indirect ELISA on streptavidin-coated plates with the free peptide as calibrator. As for the experimental part: A monoclonal antibody specific for Pro-C3 was developed as described in WO 2014/170312 (Nordic Bioscience, incorporated herein by reference) using sequence 145′-[…]-′153 (SEQ ID No: 14) of the α1 chain PIIINP as an immunogenic peptide. Briefly, generation of monoclonal antibodies was initiated by subcutaneous immunization of 4-5 week old Balb/C mice with 200 μl emulsified antigen and 50 μg PIIINP neo-epitope C-terminus sequence (OVA-CGG-[…] (SEQ ID No: 32)) using Freund's incomplete adjuvant. The immunizations were repeated every 2 weeks until stable serum titer levels were reached. The spleen cells were fused with SP2/0 myeloma cells to produce hybridoma, and cloned in culture dishes using the semi-medium method. The supernatants were screened for reactivity against calibrator peptide and native material in an indirect ELISA using streptavidin-coated plates. Biotin-CGG-[…] (SEQ ID No: 33) was used as screening peptide, while the free peptide […] (SEQ ID No: 14) was used as calibrator to test for further specificity of clones.

Assay [2] addresses T2, elongated peptide KPGVISVMGTA
T2 peptide: KPGVISVMGTA
Put plainly: screening of hybridoma cell lines against peptides. As to the method:
(§1) Mouse spleen cells were fused with SP2/0 myeloma fusion partner cells. The fusion cells were raised in 96-well plates and incubated in the CO2-incubator. Here standard limited dilution was used to promote monoclonal growth. Cell lines specific to the selection peptide and without cross-reactivity to either elongated peptide ([…] (SEQ ID No: 2), Chinese Peptide Company, China) or truncated peptide ([…] (SEQ ID No: 3), American Peptide Company, USA) were selected and sub-cloned. At last the antibodies were purified using an IgG column.

The target of assay [3] is T3, truncated peptide KPGVISVMG
T3 peptide: KPGVISVMG
Put plainly: screening of hybridoma cell lines against peptides. As for the experimental part: as §1

In assay [4] the target is T4, KPGVISVMGT, last 10 amino acids of the type VI collagen α3 chain (selection / immunogenic peptide).
T4 construct: also called PRO-C6
T4 peptide: KPGVISVMGT
Put plainly: screening of hybridoma cell lines against peptides. As to the method:
as §1

B1: monoclonal antibody specific for Pro-C3 (monoclonal antibody NB61N-62) (antibody, V domains shown)
VH: EVQLQQSGPEVLKPGASVKMSCKASGYTFINYVIHWLKQKAGQGPEWIGYMNPYNDVPKNNAKFRGKARLTSDRSSTTAYMELNSLTSEDSAVYYCARGGFFGPLSYWGQGTLVTVSA
VL: DVLMTQTPLSLSVSLGDQASISCRSSQNIVYSNGDTYFEWYLQKPGQSPKLLIYKVSQRFSGVPDRFSGSGSGTDFTLKISRVETEDLGVYYCFQGAHDPPAFGGGTKLELKR
notes: Mouse IgG2A / kappa; also called PRO-C3 antibody
On to B1, for which the binding result in assay [1] is “binds”.

B2: monoclonal antibody specific for Pro-C6 (monoclonal antibody 10A3) (antibody, mouse IgG1, kappa, V domains shown)
VH: EVQLQQSGPVMVKPGTSVKTSCKASGYTFTDFNMNWVKQSHGKSLEWIGAINPHNGATSYNQKFSGKATLTVDKSSSTAYMELNSLTSDDSAVYYCARWGNGKNSWGQGTTLTVSS
VL: DVVMTQTPLSLPVNLGDQASISCRSSQRIVHSNGITFLEWYLQKPGQSPKLLIYRVSNRFSGVPDRFSGSGSGTDFTLKISRVEAEDLGLYYCFQGSHVPLTFGAGTRLELKR
notes: Mouse IgG1 / kappa from a hybridoma; the antibodies were purified on an IgG column afterwards; also called PRO-C6 antibody
Take B2: the binding result was “no binding” in assay [2], “no binding” in assay [3] and “binds” in assay [4].
